{"source": "paper PMC4174574", "biological_target": "Mcl-1 (myeloid cell leukemia-1), recombinant protein (UniProt Q07820)", "experiment": "SPR"}
{"substance": "Noxa BH3 peptide", "values": [{"measurement": "IC50", "result": 62, "unit": "nM"}]}
